Experimental data from patent CN112062838A (UNIV NANJING MEDICAL, dated 2020).
Several values for one entry are separate records, joined by “and”; a condition that tells them apart may be missing. Equal values may be shown once.

B1: 4D8-hFc重组蛋白 (单域抗体4D8, purified) (Fc fusion, not shown: a dimerising Fc or GST)
chain: QVQLVQSGGGLVQPGGSLRLSCAASDFDFYDYEMSWVRQAPGKALEWIGEIHHSGSTYYNPSLKSRVTISRDNSKNTLYLQMNTLRAEDTAIYYCVKDFVGADGPFVFDYWGQGTLVTVSS
B2: 4D8克隆 (4D8噬菌体, phage-displayed single-domain antibody clone) (VHH)
VHH: QVQLVQSGGGLVQPGGSLRLSCAASDFDFYDYEMSWVRQAPGKALEWIGEIHHSGSTYYNPSLKSRVTISRDNSKNTLYLQMNTLRAEDTAIYYCVKDFVGADGPFVFDYWGQGTLVTVSS
notes: also called 富集克隆4D8

How the values were obtained:
[1] = molecular target: SARS-CoV-2 spike (D614) on pseudovirus (SARS-CoV-2, UniProt P0DTC2 14-1273); test: cell-based or functional assay
SARS-CoV-RBD-hFc = molecular target: T1, SARS-CoV-RBD-hFc (SARS-CoV, UniProt P59594 306-527); test: phage ELISA, antigen coated at 5μg/ml, anti-M13 HRP detection
T1 construct: domain: RBD

Row | Binder | 伪病毒中和 IC50 (Luciferase活性, CHO-ACE2细胞) [1] | binding result (SARS-CoV-RBD-hFc)
1 | B1 | 1.13 μg/ml and 15 nM | –
2 | B2 | – | no binding
